Measurements as given in patent US20020177203A1, “Alpha2 subunit of prolyl 4-hydroxylase” (priority 1996, published 2002).

Legend:
[1] = biological target: human type 1 prolyl 4-hydroxylase tetramer (human) (UniProt P13674); assay: inhibition of prolyl 4-hydroxylase activity (2-oxo[1-14C]glutarate decarboxylation), insect cell extract
[2] = biological target: mouse/human type 2 prolyl 4-hydroxylase tetramer (mouse; human) (UniProt P07237); assay: cell-based or functional assay
Sequence of mouse/human type 2 prolyl 4-hydroxylase tetramer (mouse; human) (chain, as listed by the source, chain 1 of 2): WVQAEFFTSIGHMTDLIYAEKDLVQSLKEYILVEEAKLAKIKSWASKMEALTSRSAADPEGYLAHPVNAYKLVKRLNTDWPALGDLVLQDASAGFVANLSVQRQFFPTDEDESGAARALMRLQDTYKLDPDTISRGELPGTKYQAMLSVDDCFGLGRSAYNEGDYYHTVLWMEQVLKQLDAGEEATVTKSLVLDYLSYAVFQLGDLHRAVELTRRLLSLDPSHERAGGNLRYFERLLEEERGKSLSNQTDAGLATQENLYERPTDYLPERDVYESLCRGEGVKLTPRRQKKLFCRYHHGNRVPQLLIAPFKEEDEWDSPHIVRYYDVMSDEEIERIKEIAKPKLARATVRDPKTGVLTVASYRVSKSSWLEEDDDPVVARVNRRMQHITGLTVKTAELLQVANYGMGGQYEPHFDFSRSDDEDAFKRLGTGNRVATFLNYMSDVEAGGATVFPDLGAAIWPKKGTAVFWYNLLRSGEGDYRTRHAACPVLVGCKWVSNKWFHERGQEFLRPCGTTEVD
Sequence of mouse/human type 2 prolyl 4-hydroxylase tetramer (mouse; human) (P07237 18-508, chain 2 of 2): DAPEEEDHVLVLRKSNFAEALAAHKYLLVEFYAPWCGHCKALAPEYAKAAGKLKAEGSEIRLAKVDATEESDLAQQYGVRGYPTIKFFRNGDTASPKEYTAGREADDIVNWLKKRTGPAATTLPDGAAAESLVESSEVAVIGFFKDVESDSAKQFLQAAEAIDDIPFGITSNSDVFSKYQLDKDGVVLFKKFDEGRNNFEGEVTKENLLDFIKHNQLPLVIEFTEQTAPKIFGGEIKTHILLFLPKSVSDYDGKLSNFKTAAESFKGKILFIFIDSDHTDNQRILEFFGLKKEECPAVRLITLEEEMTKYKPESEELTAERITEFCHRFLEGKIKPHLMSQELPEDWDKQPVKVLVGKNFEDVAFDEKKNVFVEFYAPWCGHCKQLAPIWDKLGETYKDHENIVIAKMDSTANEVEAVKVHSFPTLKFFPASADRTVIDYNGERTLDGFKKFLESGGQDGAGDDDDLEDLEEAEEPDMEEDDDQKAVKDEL

Sequence of human type 1 prolyl 4-hydroxylase tetramer (human) (P13674 18-534, chain 1 of 2): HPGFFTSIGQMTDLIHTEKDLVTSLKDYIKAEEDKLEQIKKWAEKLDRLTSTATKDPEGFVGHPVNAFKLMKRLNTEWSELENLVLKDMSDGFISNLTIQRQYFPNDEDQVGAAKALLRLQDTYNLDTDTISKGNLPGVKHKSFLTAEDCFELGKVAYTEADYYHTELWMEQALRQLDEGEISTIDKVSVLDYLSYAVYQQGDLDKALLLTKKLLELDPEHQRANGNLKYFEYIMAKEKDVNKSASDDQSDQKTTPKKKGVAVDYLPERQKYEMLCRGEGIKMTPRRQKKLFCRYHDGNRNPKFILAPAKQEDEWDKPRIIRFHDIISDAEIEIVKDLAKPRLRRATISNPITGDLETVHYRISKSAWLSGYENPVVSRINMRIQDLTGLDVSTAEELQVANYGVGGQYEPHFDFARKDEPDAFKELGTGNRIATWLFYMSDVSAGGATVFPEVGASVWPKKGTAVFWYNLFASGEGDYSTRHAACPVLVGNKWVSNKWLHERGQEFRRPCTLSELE
Sequence of human type 1 prolyl 4-hydroxylase tetramer (human) (P07237 18-508, chain 2 of 2, further chain): as the sequence (P07237 18-508, chain 2 of 2) above

Row | Substance | Ki [1] [µM] | IC50 (inhibition of prolyl 4-hydroxylase activity; printed in the Ki row) [2] [µM]
1 | Poly(L-proline), Mr 44,000 (peptide) | 0.02 | 30
2 | Poly(L-proline), Mr 7000 (peptide) | 0.5 | 300
